According to patent publication US20240400675A1 (published 2024):
Like-named read-outs stand apart in the source and are kept apart here.

T1: CLDN6 I143V isotype (UniProt P56747 1-220)
T1 chain: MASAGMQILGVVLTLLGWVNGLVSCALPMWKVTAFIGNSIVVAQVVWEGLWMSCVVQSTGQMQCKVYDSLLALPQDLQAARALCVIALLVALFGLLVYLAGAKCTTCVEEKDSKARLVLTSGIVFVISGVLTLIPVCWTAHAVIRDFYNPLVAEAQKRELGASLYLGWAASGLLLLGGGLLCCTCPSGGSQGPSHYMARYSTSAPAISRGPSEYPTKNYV

T2: human CLDN6 (UniProt P56747 1-220)
T2 chain: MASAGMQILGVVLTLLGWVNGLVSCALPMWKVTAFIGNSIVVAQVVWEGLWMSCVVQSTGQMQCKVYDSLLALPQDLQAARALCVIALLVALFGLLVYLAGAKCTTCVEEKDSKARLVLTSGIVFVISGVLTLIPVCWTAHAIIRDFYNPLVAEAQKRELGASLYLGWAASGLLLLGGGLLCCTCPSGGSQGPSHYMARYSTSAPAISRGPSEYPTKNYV

T3: human CLDN9 (UniProt O95484 1-217)
T3 chain: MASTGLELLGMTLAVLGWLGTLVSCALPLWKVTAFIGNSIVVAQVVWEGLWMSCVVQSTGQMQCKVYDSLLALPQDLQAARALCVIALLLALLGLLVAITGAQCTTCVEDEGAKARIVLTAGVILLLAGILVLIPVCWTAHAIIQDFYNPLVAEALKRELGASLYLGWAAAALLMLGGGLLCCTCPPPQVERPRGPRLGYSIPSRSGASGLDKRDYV

T4: mouse CLDN6 (mouse, UniProt Q9Z262 1-219)
T4 chain: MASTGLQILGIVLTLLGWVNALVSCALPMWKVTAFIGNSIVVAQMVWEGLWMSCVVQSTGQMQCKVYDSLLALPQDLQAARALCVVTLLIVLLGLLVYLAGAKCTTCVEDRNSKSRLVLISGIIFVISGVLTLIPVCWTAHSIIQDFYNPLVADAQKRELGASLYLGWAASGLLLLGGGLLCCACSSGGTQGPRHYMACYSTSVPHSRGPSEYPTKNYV

T5: cyno CLDN6
T5 chain: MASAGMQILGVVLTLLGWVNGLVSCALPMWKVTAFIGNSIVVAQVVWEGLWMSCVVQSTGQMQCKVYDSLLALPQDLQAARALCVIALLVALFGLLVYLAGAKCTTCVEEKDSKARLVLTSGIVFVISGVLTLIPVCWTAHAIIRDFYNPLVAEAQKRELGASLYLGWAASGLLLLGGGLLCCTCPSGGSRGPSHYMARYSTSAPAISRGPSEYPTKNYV


Legend:
Experiment in all cases: flow cytometry, HEK293E cells
CLDN6 I143V isotype = target: T1, CLDN6 I143V isotype
human CLDN6 [1] = target: T2, human CLDN6
human CLDN9 = target: T3, human CLDN9
human CLDN6 [2] = target: T2, human CLDN6
mouse CLDN6 = target: T4, mouse CLDN6
cyno CLDN6 = target: T5, cyno CLDN6

EC50 (CLDN6 I143V isotype) [µg/mL]	EC50 (human CLDN6 [1]) [µg/mL]	EC50 (human CLDN9) [µg/mL]	EC50 (human CLDN6 [2]) [µg/mL]	EC50 (mouse CLDN6) [µg/mL]	EC50 (cyno CLDN6) [µg/mL]	Binder
12.9	20.6	137	2.38	6.71	3.19	XENP34637 (C6-30_H2L1 x CD3 bsAb in the 1+1 Fab-scFv-Fc format) (bispecific antibody) heavy: EVQLVQSGAEVKKPGESLRISCKTSGYTFTEYTMHWVRQMPGKSLEWMGGIDPNNGNTHYNQKFQGHVTISVDKSISTAYLQWSSLKASDTAMYYCARIYYFGRLYFDFWGAGTLVTVSSASTKGPSVFPLAPSSKSTSGGTAALGCLVKDYFPEPVTVSWNSGALTSGVHTFPAVLQSSGLYSLSSVVTVPSSSLGTQTYICNVNHKPSDTKVDKKVEPKSCDKTHTCPPCPAPPVAGPSVFLFPPKPKDTLMISRTPEVTCVVVDVKHEDPEVKFNWYVDGVEVHNAKTKPREEEYNSTYRVVSVLTVLHQDWLNGKEYKCKVSNKALPAPIEKTISKAKGQPREPQVYTLPPSREEMTKNQVSLTCDVSGFYPSDIAVEWESDGQPENNYKTTPPVLDSDGSFFLYSKLTVDKSRWEQGDVFSCSVMHEALHNHYTQKSLSLSPGK scFv-Fc: not shown light: not shown
0.2	0.435	11.2	0.244	0.588	0.267	XENP34638 (C6-30_H2L1 x CD3 bsAb in the 2+1 Fab2-scFv-Fc format) (bispecific antibody) heavy 1: EVQLVQSGAEVKKPGESLRISCKTSGYTFTEYTMHWVRQMPGKSLEWMGGIDPNNGNTHYNQKFQGHVTISVDKSISTAYLQWSSLKASDTAMYYCARIYYFGRLYFDFWGAGTLVTVSSASTKGPSVFPLAPSSKSTSGGTAALGCLVKDYFPEPVTVSWNSGALTSGVHTFPAVLQSSGLYSLSSVVTVPSSSLGTQTYICNVNHKPSDTKVDKKVEPKSCDKTHTCPPCPAPPVAGPSVFLFPPKPKDTLMISRTPEVTCVVVDVKHEDPEVKFNWYVDGVEVHNAKTKPREEEYNSTYRVVSVLTVLHQDWLNGKEYKCKVSNKALPAPIEKTISKAKGQPREPQVYTLPPSREEMTKNQVSLTCDVSGFYPSDIAVEWESDGQPENNYKTTPPVLDSDGSFFLYSKLTVDKSRWEQGDVFSCSVMHEALHNHYTQKSLSLSPGK heavy 2: EVQLVQSGAEVKKPGESLRISCKTSGYTFTEYTMHWVRQMPGKSLEWMGGIDPNNGNTHYNQKFQGHVTISVDKSISTAYLQWSSLKASDTAMYYCARIYYFGRLYFDFWGAGTLVTVSSASTKGPSVFPLAPSSKSTSGGTAALGCLVKDYFPEPVTVSWNSGALTSGVHTFPAVLQSSGLYSLSSVVTVPSSSLGTQTYICNVNHKPSNTKVDKKVEPKSCGGGGSGGGGSQAVVTQEPSLTVSPGGTVTLTCGSSTGAVTTSNYANWVQQKPGKSPRGLIGGTNKRAPGVPARFSGSLLGGKAALTISGAQPEDEADYYCALWYSNHWVFGGGTKLTVLGKPGSGKPGSGKPGSGKPGSEVQLVESGGGLVQPGGSLRLSCAASGFTFSTYAMNWVRQAPGKGLEWVGRIRSKYNNYATYYADSVKGRFTISRDDSKNTLYLQMNSLRAEDTAVYYCVRHGNFGDSYVSWFAYWGQGTLVTVSSGGGGSGGGGSKTHTCPPCPAPPVAGPSVFLFPPKPKDTLMISRTPEVTCVVVDVKHEDPEVKFNWYVDGVEVHNAKTKPREEQYNSTYRVVSVLTVLHQDWLNGKEYKCKVSNKALPAPIEKTISKAKGQPREPQVYTLPPSREQMTKNQVKLTCLVKGFYPSDIAVEWESNGQPENNYKTTPPVLDSDGSFFLYSKLTVDKSRWQQGNVFSCSVMHEALHNHYTQKSLSLSPGK light: not shown
